Measurements from PMC6384963, “The β-N-Acetylhexosaminidase in the Synthesis of Bioactive Glycans: Protein and Reaction Engineering” (Molecules, 2019).
Substitutions are numbered along the chain they refer to. Numbers in names are those of the source.

B1: TfHex (β-N-acetylhexosaminidase from Talaromyces flavus) (Talaromyces flavus; Y470N) (protein)
chain: VAVNPLPAPRSITWGTSGPISVPHNVDVKLPKNAIINDAWERAWTSIKQLRWVPQATEAPISSYEPFPTVAPTSASTASSTPLPSSSAAAVAARSQKRGHQKGSHEKRGHSQSTLRTVTVTVSDLNADLQAEVDESYTLVLDSGSSTLAITANTTWGALHAFTTLQQLVIYQDNSLIIEQPVHIEDSPLYPWRGVMIDTGRNFITVPKIKEQIDGMALSKLNILHWHLDDSQSWPVHMDTYPQMTNDAYSPWQTYSHEDIKDIIEYARARAVRVVPEVDMPGHSAAGWQQVDPSIVACAHSWWSNDNWPYHTAVEPTPGQLDPLNNKTYGVVEKVYNELSGIFTDDFFHVGGDELQTGCYNFSTYVSDYLAADPSRTYNDVTQYWVDHAFPIFKKIQNRKLVIWEDLIINNPHAPNVSTENLLVQSWNNGLTNINNLTNLGYDVLVSSSDFMNLDCGYGGFVTNDPRYDVMVNPDAVDGLANFNWGGNGGSWCAPYKTWQRIYDYDFTTNLTDAQAAHVKGAVAPLWSEQVDDTVISGKMWPRAAALAELVWSGNKDPKTGDKRTTYMTQRILNFREYLVANGVQAAPLVPKYCLQHPHSCDLYYDQTAVV
notes: secreted from Pichia pastoris KM71H, pPICZαA vector; purified by cation-exchange chromatography
B2: TfHex (β-N-acetylhexosaminidase from Talaromyces flavus) (Talaromyces flavus) (protein)
chain: B1 chain with N453Y
notes: as for B1
B3: TfHex (β-N-acetylhexosaminidase from Talaromyces flavus) (Talaromyces flavus; Y470F) (protein)
chain: B1 chain with N453F
notes: as for B1
B4: TfHex (β-N-acetylhexosaminidase from Talaromyces flavus) (Talaromyces flavus; Y470H) (protein)
chain: B1 chain with N453H
notes: as for B1

Each protein was assayed on CC(=O)N[C@H]1[C@H](Oc2ccc([N+](=O)[O-])cc2)O[C@H](CO)[C@@H](O)[C@@H]1O (assay: purified protein). Conditions: McIlvaine buffer pH 5.0, 25 °C, hydrolysis.
Assay type: biochemical, Talaromyces flavus
In the case of B1, the Km is reported as 890 ± 130 µM, the kcat is reported as 11.6 ± 0.6 s⁻¹ and the kcat/Km is reported as 13000 M⁻¹ s⁻¹. In the case of B2, the Km is reported as 110 ± 20 µM, the kcat is reported as 47 ± 1 s⁻¹ and the kcat/Km is reported as 434000 M⁻¹ s⁻¹. B3 showed a Km of 23 ± 8 µM, a kcat of 0.27 ± 0.01 s⁻¹ and a kcat/Km of 12000 M⁻¹ s⁻¹. Work on B4 yielded a Km of 53 ± 8 µM, a kcat of 0.67 ± 0.02 s⁻¹ and a kcat/Km of 13000 M⁻¹ s⁻¹.

What follows are proteins tested on CC(=O)N[C@H]1[C@H](Oc2ccc([N+](=O)[O-])cc2)O[C@H](CO)[C@H](O)[C@@H]1O (assay: purified protein). Conditions: McIlvaine buffer pH 5.0, 25 °C, hydrolysis.
Assay type: biochemical, Talaromyces flavus
For B1, the Km was 890 ± 90 µM, the kcat was 0.35 ± 0.01 s⁻¹ and the kcat/Km was 400 M⁻¹ s⁻¹. B2 showed a Km of 690 ± 90 µM, a kcat of 104 ± 5 s⁻¹ and a kcat/Km of 150000 M⁻¹ s⁻¹. With B3 the Km was 50 ± 5 µM, the kcat was 0.166 ± 0.003 s⁻¹ and the kcat/Km was 3300 M⁻¹ s⁻¹. Work on B4 yielded a Km of 350 ± 30 µM, a kcat of 0.188 ± 0.004 s⁻¹ and a kcat/Km of 530 M⁻¹ s⁻¹.
